From PMC9482650, “Quantitative fragmentomics allow affinity mapping of interactomes” (Nature Communications, 2022)

Tests used:
Assay in all cases: holdup assay
Set-up in all cases: key: below the threshold = too weak to quantify, mostly under pKd 3.1 to 4
ARHGAP21, Q5T5U3 = target: T1, ARHGAP21, Q5T5U3
T1 sequence (Q5T5U3 45-169, limits assumed, looked up): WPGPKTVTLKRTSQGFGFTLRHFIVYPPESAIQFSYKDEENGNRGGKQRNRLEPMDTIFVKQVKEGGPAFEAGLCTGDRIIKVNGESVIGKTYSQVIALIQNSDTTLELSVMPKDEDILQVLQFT

RAPGEF6, Q8TEU7 = target: T2, RAPGEF6, Q8TEU7
T2 sequence (Q8TEU7 525-625, limits assumed, looked up): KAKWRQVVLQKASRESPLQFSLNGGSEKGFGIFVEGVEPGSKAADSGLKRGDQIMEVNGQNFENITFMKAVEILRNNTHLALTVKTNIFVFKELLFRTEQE

IL16_1, Q14005 = target: IL16_1, Q14005
NHERF4_1, Q86UT5-2 = target: NHERF4_1, Q86UT5-2
MAGI2_4, Q86UL8 = target: MAGI2_4, Q86UL8
NHERF4_2, Q86UT5 = target: NHERF4_2, Q86UT5
PARD3B_1, Q8TEW8 = target: T3, PARD3B_1, Q8TEW8
T3 sequence (Q8TEW8 196-299, limits assumed, looked up): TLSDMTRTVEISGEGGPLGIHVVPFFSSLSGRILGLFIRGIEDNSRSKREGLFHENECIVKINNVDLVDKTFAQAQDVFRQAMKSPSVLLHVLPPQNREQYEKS

AHNAK1, Q09666 = target: AHNAK1, Q09666
MPDZ_5, O75970 = target: T4, MPDZ_5, O75970
T4 sequence (O75970 695-796, limits assumed, looked up): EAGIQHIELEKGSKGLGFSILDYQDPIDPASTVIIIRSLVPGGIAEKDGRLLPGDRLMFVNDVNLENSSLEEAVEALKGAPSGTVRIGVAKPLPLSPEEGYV

LNX1_1, Q8TBB1 = target: LNX1_1, Q8TBB1
FRMPD2_2, Q68DX3 = target: FRMPD2_2, Q68DX3
SHANK1, Q9Y566 = target: T5, SHANK1, Q9Y566
T5 sequence (Q9Y566 658-767, limits assumed, looked up): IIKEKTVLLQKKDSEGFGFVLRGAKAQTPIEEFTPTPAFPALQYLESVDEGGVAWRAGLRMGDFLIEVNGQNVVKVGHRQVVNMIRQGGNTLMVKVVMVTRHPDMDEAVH

DLG1_3, Q12959 = target: DLG1_3, Q12959
GRASP, Q7Z6J2 = target: GRASP, Q7Z6J2
MPDZ_12, O75970 = target: T6, MPDZ_12, O75970
T6 sequence (O75970 1857-1958, limits assumed, looked up): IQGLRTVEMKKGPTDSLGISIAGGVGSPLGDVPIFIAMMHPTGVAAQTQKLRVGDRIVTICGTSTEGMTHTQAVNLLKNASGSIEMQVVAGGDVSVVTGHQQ

GOPC, Q9HD26 = target: GOPC, Q9HD26
Inadl_9, Q8NI35 = target: Inadl_9, Q8NI35
DLG5_1, Q8TDM6 = target: DLG5_1, Q8TDM6
MAGI3_2, Q5TCQ9 = target: MAGI3_2, Q5TCQ9
SCRIB_1, Q14160 = target: SCRIB_1, Q14160
RADIL, Q96JH8 = target: T7, RADIL, Q96JH8
T7 sequence (Q96JH8 971-1071, limits assumed, looked up): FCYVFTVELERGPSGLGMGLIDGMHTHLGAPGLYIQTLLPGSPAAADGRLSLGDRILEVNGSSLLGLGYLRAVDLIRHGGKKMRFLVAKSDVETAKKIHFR

LAP2, Q96RT1 = target: LAP2, Q96RT1
MPDZ_10, O75970 = target: T8, MPDZ_10, O75970
T8 sequence (O75970 1624-1722, limits assumed, looked up): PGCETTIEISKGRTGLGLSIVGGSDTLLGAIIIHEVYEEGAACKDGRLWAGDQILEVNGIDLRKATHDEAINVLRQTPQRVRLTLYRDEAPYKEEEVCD

APBA2_1, Q99767 = target: T9, APBA2_1, Q99767
T9 sequence (Q99767 563-664, limits assumed, looked up): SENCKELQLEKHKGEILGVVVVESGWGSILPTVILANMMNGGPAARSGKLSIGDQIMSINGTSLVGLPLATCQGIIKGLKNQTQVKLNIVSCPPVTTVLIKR

GRID2IP_1, A4D2P6 = target: GRID2IP_1, A4D2P6
APBA1_1, Q02410 = target: T10, APBA1_1, Q02410
T10 sequence (Q02410 651-752, limits assumed, looked up): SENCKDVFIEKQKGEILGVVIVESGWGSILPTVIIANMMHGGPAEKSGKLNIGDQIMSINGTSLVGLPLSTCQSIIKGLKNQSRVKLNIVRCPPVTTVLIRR

[1] = plain residues with an end cap or a label only (N-terminal biotin on a linker: ado-ado)
[2] = plain residues with an end cap or a label only (N-terminal biotin on a linker: ahx)
[3] = plain residues with an end cap or a label only (N-terminal biotin on a linker: ttds)

Sequence of MAGI3_2, Q5TCQ9 (Q5TCQ9 398-503): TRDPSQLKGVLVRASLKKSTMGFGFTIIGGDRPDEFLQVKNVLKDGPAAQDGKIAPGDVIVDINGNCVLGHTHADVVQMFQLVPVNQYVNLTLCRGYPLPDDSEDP
Sequence of DLG5_1, Q8TDM6 (Q8TDM6 617-713): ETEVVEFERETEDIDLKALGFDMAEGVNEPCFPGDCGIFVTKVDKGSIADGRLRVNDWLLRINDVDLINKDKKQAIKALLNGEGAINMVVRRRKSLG
Sequence of FRMPD2_2, Q68DX3 (Q68DX3 944-1038): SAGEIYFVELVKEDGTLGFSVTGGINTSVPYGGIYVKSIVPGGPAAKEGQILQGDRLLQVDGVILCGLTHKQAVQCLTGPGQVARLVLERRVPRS
Sequence of Inadl_9, Q8NI35 (Q8NI35 1530-1615): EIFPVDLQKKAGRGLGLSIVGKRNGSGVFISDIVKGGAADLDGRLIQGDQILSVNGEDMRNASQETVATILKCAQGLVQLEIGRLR
Sequence of NHERF4_2, Q86UT5 (Q86UT5 220-308): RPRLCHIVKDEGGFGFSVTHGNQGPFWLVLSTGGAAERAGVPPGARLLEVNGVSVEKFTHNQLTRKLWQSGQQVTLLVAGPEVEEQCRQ
Sequence of IL16_1, Q14005 (Q14005 210-306): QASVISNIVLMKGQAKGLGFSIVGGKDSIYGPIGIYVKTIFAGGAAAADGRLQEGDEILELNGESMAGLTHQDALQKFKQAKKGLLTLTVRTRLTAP
Sequence of GRASP, Q7Z6J2 (Q7Z6J2 96-193): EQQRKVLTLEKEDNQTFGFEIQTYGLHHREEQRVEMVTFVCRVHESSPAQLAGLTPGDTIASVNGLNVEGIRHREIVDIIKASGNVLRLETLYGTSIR
Sequence of GRID2IP_1, A4D2P6 (A4D2P6 1-87): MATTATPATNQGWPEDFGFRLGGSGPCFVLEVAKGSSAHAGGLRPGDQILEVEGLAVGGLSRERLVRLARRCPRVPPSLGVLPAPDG
Sequence of MAGI2_4, Q86UL8 (Q86UL8 772-865): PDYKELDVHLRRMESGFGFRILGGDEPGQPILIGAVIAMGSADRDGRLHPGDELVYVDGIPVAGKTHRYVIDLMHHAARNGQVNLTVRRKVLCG
Sequence of DLG1_3, Q12959 (Q12959 457-571): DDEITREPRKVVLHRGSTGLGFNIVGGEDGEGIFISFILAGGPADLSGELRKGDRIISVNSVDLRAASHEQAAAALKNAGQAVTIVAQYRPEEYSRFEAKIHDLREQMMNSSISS
Sequence of SCRIB_1, Q14160 (Q14160 718-814): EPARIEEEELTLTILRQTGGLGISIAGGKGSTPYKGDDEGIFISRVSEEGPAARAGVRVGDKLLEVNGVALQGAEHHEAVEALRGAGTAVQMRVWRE
Sequence of AHNAK1, Q09666 (Q09666 4-100): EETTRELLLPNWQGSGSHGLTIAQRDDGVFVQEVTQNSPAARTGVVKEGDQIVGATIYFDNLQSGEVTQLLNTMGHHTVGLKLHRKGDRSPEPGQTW
Sequence of NHERF4_1, Q86UT5-2 (Q86UT5 other isoform, or with tags, fused parts or gaps): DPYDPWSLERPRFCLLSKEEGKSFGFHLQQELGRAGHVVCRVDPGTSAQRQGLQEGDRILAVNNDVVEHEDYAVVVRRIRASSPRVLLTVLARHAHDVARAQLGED
Sequence of LAP2, Q96RT1 (Q96RT1 other isoform, or with tags, fused parts or gaps): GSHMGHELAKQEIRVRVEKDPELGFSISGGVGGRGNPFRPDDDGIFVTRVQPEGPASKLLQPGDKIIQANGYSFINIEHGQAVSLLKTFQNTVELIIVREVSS
Sequence of LNX1_1, Q8TBB1 (Q8TBB1 261-371): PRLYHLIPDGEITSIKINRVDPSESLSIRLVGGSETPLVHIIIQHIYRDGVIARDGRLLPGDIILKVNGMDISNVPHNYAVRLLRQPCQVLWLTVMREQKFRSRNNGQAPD

B1: ACOT6, Q3I5F7 (peptide)
chain: GKKSVKHSKI
With B1 the pKd (ARHGAP21, Q5T5U3; [1]) was 4.06, the pKd (RAPGEF6, Q8TEU7; [1]) was “below the threshold” and the pKd (IL16_1, Q14005; [1]) was “below the threshold”. For the same binder, the pKd (NHERF4_1, Q86UT5-2; [1]) was “below the threshold”, the pKd (MAGI2_4, Q86UL8; [1]) was “below the threshold” and the pKd (NHERF4_2, Q86UT5; [1]) was “below the threshold”. For the same binder, the pKd (PARD3B_1, Q8TEW8; [1]) was “below the threshold”, the pKd (AHNAK1, Q09666; [1]) was “below the threshold” and the pKd (MPDZ_5, O75970; [1]) was “below the threshold”. For the same binder, the pKd (LNX1_1, Q8TBB1; [1]) was “below the threshold”, the pKd (FRMPD2_2, Q68DX3; [1]) was “below the threshold” and the pKd (SHANK1, Q9Y566; [1]) was “below the threshold”. The pKd (DLG1_3, Q12959; [1]) was “below the threshold”, the pKd (GRASP, Q7Z6J2; [1]) was “below the threshold” and the pKd (MPDZ_12, O75970; [1]) was “below the threshold”. For the same binder, the pKd (GOPC, Q9HD26; [1]) was 3.68, the pKd (Inadl_9, Q8NI35; [1]) was “below the threshold” and the pKd (DLG5_1, Q8TDM6; [1]) was “below the threshold”. For the same binder, the pKd (MAGI3_2, Q5TCQ9; [1]) was 4.07, the pKd (SCRIB_1, Q14160; [1]) was 3.82 and the pKd (RADIL, Q96JH8; [1]) was “below the threshold”. For the same binder, the pKd (LAP2, Q96RT1; [1]) was “below the threshold”, the pKd (MPDZ_10, O75970; [1]) was “below the threshold” and the pKd (APBA2_1, Q99767; [1]) was “below the threshold”. The pKd (GRID2IP_1, A4D2P6; [1]) was “below the threshold” and the pKd (APBA1_1, Q02410; [1]) was “below the threshold”.

B2: SHROOM3, Q8TF72 (peptide)
chain: GIFPTLTSPL
For B2, the pKd (ARHGAP21, Q5T5U3; [2]) was “below the threshold”, the pKd (RAPGEF6, Q8TEU7; [2]) was “below the threshold” and the pKd (IL16_1, Q14005; [2]) was “below the threshold”. For the same binder, the pKd (NHERF4_1, Q86UT5-2; [2]) was 4.15, the pKd (MAGI2_4, Q86UL8; [2]) was “below the threshold” and the pKd (NHERF4_2, Q86UT5; [2]) was “below the threshold”. The pKd (PARD3B_1, Q8TEW8; [2]) was “below the threshold”, the pKd (AHNAK1, Q09666; [2]) was “below the threshold” and the pKd (MPDZ_5, O75970; [2]) was “below the threshold”. The pKd (LNX1_1, Q8TBB1; [2]) was “below the threshold”, the pKd (FRMPD2_2, Q68DX3; [2]) was “below the threshold” and the pKd (SHANK1, Q9Y566; [2]) was 4.8. For the same binder, the pKd (DLG1_3, Q12959; [2]) was “below the threshold”, the pKd (GRASP, Q7Z6J2; [2]) was 5.03 and the pKd (MPDZ_12, O75970; [2]) was “below the threshold”. For the same binder, the pKd (GOPC, Q9HD26; [2]) was “below the threshold”, the pKd (Inadl_9, Q8NI35; [2]) was “below the threshold” and the pKd (DLG5_1, Q8TDM6; [2]) was “below the threshold”. The pKd (MAGI3_2, Q5TCQ9; [2]) was “below the threshold”, the pKd (SCRIB_1, Q14160; [2]) was “below the threshold” and the pKd (RADIL, Q96JH8; [2]) was “below the threshold”. For the same binder, the pKd (LAP2, Q96RT1; [2]) was “below the threshold”, the pKd (MPDZ_10, O75970; [2]) was 3.77 and the pKd (APBA2_1, Q99767; [2]) was “below the threshold”. The pKd (GRID2IP_1, A4D2P6; [2]) was “below the threshold” and the pKd (APBA1_1, Q02410; [2]) was “below the threshold”.

B3: LNX1, Q8TBB1 (peptide)
chain: TIVSWPGTFL
B3 was tested, and the pKd (ARHGAP21, Q5T5U3; [2]) was “below the threshold”, the pKd (RAPGEF6, Q8TEU7; [2]) was “below the threshold” and the pKd (IL16_1, Q14005; [2]) was “below the threshold”. For the same binder, the pKd (NHERF4_1, Q86UT5-2; [2]) was 3.47, the pKd (MAGI2_4, Q86UL8; [2]) was “below the threshold” and the pKd (NHERF4_2, Q86UT5; [2]) was “below the threshold”. For the same binder, the pKd (PARD3B_1, Q8TEW8; [2]) was 4.31, the pKd (AHNAK1, Q09666; [2]) was “below the threshold” and the pKd (MPDZ_5, O75970; [2]) was “below the threshold”. It also gave a pKd (LNX1_1, Q8TBB1; [2]) of 4.09, a pKd (FRMPD2_2, Q68DX3; [2]) of 3.58 and a pKd (SHANK1, Q9Y566; [2]) of 4.24. For the same binder, the pKd (DLG1_3, Q12959; [2]) was “below the threshold”, the pKd (GRASP, Q7Z6J2; [2]) was 4.15 and the pKd (MPDZ_12, O75970; [2]) was 3.54. The pKd (GOPC, Q9HD26; [2]) was 3.75, the pKd (Inadl_9, Q8NI35; [2]) was “below the threshold” and the pKd (DLG5_1, Q8TDM6; [2]) was “below the threshold”. For the same binder, the pKd (MAGI3_2, Q5TCQ9; [2]) was “below the threshold”, the pKd (SCRIB_1, Q14160; [2]) was “below the threshold” and the pKd (RADIL, Q96JH8; [2]) was 4.45. The pKd (LAP2, Q96RT1; [2]) was “below the threshold”, the pKd (MPDZ_10, O75970; [2]) was 3.6 and the pKd (APBA2_1, Q99767; [2]) was “below the threshold”. The pKd (GRID2IP_1, A4D2P6; [2]) was “below the threshold” and the pKd (APBA1_1, Q02410; [2]) was “below the threshold”.

B4: CTNNB1, P35222 (peptide)
chain: NQLAWFDTDL
In the case of B4, the pKd (ARHGAP21, Q5T5U3; [3]) is reported as 4.88, the pKd (RAPGEF6, Q8TEU7; [3]) is reported as “below the threshold” and the pKd (IL16_1, Q14005; [3]) is reported as “below the threshold”. For the same binder, the pKd (NHERF4_1, Q86UT5-2; [3]) was “below the threshold”, the pKd (MAGI2_4, Q86UL8; [3]) was “below the threshold” and the pKd (NHERF4_2, Q86UT5; [3]) was “below the threshold”. The pKd (PARD3B_1, Q8TEW8; [3]) was “below the threshold”, the pKd (AHNAK1, Q09666; [3]) was “below the threshold” and the pKd (MPDZ_5, O75970; [3]) was “below the threshold”. For the same binder, the pKd (LNX1_1, Q8TBB1; [3]) was 3.47, the pKd (FRMPD2_2, Q68DX3; [3]) was “below the threshold” and the pKd (SHANK1, Q9Y566; [3]) was 4.1. For the same binder, the pKd (DLG1_3, Q12959; [3]) was “below the threshold”, the pKd (GRASP, Q7Z6J2; [3]) was “below the threshold” and the pKd (MPDZ_12, O75970; [3]) was “below the threshold”. For the same binder, the pKd (GOPC, Q9HD26; [3]) was “below the threshold”, the pKd (Inadl_9, Q8NI35; [3]) was “below the threshold” and the pKd (DLG5_1, Q8TDM6; [3]) was “below the threshold”. The pKd (MAGI3_2, Q5TCQ9; [3]) was “below the threshold”, the pKd (SCRIB_1, Q14160; [3]) was 4.86 and the pKd (RADIL, Q96JH8; [3]) was “below the threshold”. For the same binder, the pKd (LAP2, Q96RT1; [3]) was 4.53, the pKd (MPDZ_10, O75970; [3]) was “below the threshold” and the pKd (APBA2_1, Q99767; [3]) was “below the threshold”. For the same binder, the pKd (GRID2IP_1, A4D2P6; [3]) was “below the threshold” and the pKd (APBA1_1, Q02410; [3]) was “below the threshold”.
